Legend:
[1] = target: MLL4_(PHD2/3) E292K (human, UniProt O14686 227-324, E292K)
[2] = target: T1, MLL3_(PHD2/3) D400K (human, UniProt Q8NEZ4 342-439, D400K); assay: not stated; fluorescence spectroscopy or NMR: the legends of Fig. 3c and Fig. 4b say that values marked (a) are from NMR and the others from fluorescence; the text does not tell which for these pairs; conditions: both partners purified
T1 construct: human MLL3 (KMT2C), aa 342-439; source: E. coli BL21-CodonPlus, purified as WT
T1 sequence (looked up): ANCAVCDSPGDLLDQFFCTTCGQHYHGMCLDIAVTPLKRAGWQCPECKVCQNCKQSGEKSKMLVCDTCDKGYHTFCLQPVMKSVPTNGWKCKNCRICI

[3] = target: T2, MLL3_(PHD2/3) D372K (human, UniProt Q8NEZ4 342-439, D372K); assay: as above; conditions: both partners purified
T2 construct: human MLL3 (KMT2C), aa 342-439; source: E. coli BL21-CodonPlus, purified as WT
T2 sequence (looked up): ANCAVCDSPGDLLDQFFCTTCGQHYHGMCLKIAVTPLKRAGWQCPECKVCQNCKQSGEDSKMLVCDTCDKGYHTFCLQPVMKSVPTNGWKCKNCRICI

[4] = target: T3, MLL4_(PHD2/3) D285K (human, UniProt O14686 227-324, D285K); assay: as above; conditions: both partners purified
T3 construct: human MLL4 (KMT2D), aa 227-324; source: E. coli BL21-CodonPlus, purified as WT
T3 sequence (looked up): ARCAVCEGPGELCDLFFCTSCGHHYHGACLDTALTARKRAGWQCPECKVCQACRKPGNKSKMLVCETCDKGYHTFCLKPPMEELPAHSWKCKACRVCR

[5] = target: T4, MLL3_(PHD2/3) D372K (human, UniProt Q8NEZ4 342-439, D372K)
T4 sequence: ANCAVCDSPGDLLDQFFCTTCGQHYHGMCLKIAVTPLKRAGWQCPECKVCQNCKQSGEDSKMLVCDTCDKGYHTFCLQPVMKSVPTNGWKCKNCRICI

[6] = target: T5, MLL3_(PHD2/3) E387Q (human, UniProt Q8NEZ4 342-439, E387Q)
T5 sequence: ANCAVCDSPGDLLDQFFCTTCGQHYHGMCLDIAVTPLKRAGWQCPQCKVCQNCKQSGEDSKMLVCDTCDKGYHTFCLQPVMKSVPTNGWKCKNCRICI

[7] = target: T6, MLL3_(PHD2/3) D400K (human, UniProt Q8NEZ4 342-439, D400K)
T6 sequence: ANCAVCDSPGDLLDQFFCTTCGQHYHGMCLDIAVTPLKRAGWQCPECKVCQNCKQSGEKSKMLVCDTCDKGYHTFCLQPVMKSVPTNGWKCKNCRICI

[8] = target: T7, MLL3_(PHD2/3) D372N (human, UniProt Q8NEZ4 342-439, D372N)
T7 sequence: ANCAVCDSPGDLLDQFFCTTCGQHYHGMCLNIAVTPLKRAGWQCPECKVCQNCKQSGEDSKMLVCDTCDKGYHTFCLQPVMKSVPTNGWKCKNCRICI

[9] = target: T8, MLL4_(PHD2/3) S314A (human, UniProt O14686 227-324, S314A); assay: other fluorescence titration; tryptophan fluorescence, 25 °C; 1.0 µM MLL4 PHD2/3 or MLL3 PHD2/3 with increasing peptide; excitation 295 nm; 20 mM Tris pH 7.2, 150 mM NaCl, 1 mM TCEP, 0.02% Tween20; average of three measurements; conditions: both partners purified
T8 construct: human MLL4 (KMT2D), aa 227-324; source: E. coli BL21-CodonPlus, purified as WT
T8 sequence (looked up): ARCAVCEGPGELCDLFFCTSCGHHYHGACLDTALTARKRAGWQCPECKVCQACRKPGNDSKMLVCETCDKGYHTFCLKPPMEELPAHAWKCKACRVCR

[10] = target: T9, MLL4_(PHD2/3) D257K (human, UniProt O14686 227-324, D257K); assay: as above; conditions: both partners purified
T9 construct: human MLL4 (KMT2D), aa 227-324; source: E. coli BL21-CodonPlus, purified as WT
T9 sequence (looked up): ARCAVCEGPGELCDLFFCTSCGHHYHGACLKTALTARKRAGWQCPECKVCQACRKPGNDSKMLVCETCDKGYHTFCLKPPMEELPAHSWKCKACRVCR

[11] = target: T10, MLL4_(PHD2/3) E272K (human, UniProt O14686 227-324, E272K); assay: as above; conditions: both partners purified
T10 construct: human MLL4 (KMT2D), aa 227-324; E272K is said to be found in cancers (Cosmic); source: E. coli BL21-CodonPlus, purified as WT
T10 sequence (looked up): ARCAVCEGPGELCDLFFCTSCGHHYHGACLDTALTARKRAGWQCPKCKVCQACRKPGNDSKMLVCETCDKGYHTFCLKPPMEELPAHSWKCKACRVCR

[12] = target: T11, MLL4_(PHD2/3) S286A (human, UniProt O14686 227-324, S286A); assay: as above; conditions: both partners purified
T11 construct: human MLL4 (KMT2D), aa 227-324; source: E. coli BL21-CodonPlus, purified as WT
T11 sequence (looked up): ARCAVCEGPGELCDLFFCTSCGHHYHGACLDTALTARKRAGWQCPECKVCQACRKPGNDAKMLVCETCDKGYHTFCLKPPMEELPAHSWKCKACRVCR

- Kd [1]: 10 µM
- fold reduction in binding against wild type MLL3_(PHD2/3) [2]: 400 fold
- fold reduction in binding against wild type MLL3_(PHD2/3) [3]: ~40 fold
- Kd [4]: ~1700 µM
- Kd [5]: 55 µM
- Kd [6]: 6 µM
- Kd [7]: 540 µM
- Kd [8]: 9 µM
- Kd [9]: 0.8 µM
- Kd [10]: 27 µM
- Kd [11]: 28 µM
- Kd [12]: 0.8 µM
B1: ASXL2 peptide (residues 650-670 of ASXL2) (peptide, UniProt Q76L83 650-670, looked up)
peptide: NRTGARTLADIKAKAQLVKAQ
notes: also called ASXL2 (aa 650-670); MBH of ASXL2; source: synthetic peptide (SynPeptide)
